The data set is described as follows: self-splicing fitness, log relative to wild type (ln ratio); higher = more splicing; Tetrahymena group I intron in knt gene, E. coli kanamycin selection, DiMSum; sequences stand for … in CUCUCU…GGAGGGAAAAGUUAUCAGGCAUGCACCUGGUAGCUAGUCUUUAAACCAAUAGAUUGCAUCGGUUUAAAAGGCAAGACCGUCAAAUUGCGGGAAAGGGGUCAACAGCCGUUCAGUACCAAGUCUCAGGGGAAACUUUGAGAUGGCCUUGCAAAGGGUAUGGUAAUAAGCUGACGGACAUGGUCCUAACCACGCAGCCAAGUCCUAAGUCAACAGAUCUUCUGUUGAUAUGGAUGCAGUUCACAGACUAAAUGUCGGUCGGGGAAGAUGUAUUCUUCUCAUAAGAUAUAGUCGGACCUCUCCUUAAUGGGAGCUAGCGGAUGAAGUGAUGCAACACUGGAGCCGCUGGGAACUAAUUUGUAUGCGAAAGUAUAUUGAUUAGUUUUGGAGUACUCGUGGUCG
The gist of the method:
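Colonies from six replicate transformations of E. coli BL21(DE3) were pooled and amplicon-sequenced on an Illumina HiSeq 2500. The library placed an intron with all eight P1ex-region nucleotides randomised inside the knt kanamycin-resistance gene on pET-22b(+), and cells grew overnight at 37°C or 30°C on LB agar with or without 25 μg/mL kanamycin (plus 100 μg/mL carbenicillin, 50 μM IPTG, 0.2% rhamnose). Fitness is the DiMSum error-weighted combination of wild-type-normalised replicate fold changes, kanamycin versus none.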

± gives the uncertainty stated by the source.

Consider AACUAGCAAUAUUACGAUUA, for which the “self-splicing fitness (ln)” value runs as follows: (30 °C) -0.307 ± 0.087; (37 °C) -0.0303 ± 0.11.
AACUAGCAAUAUUACGAUUU: the “self-splicing fitness (ln)” value (30 °C) was -0.0161 ± 0.059 and the “self-splicing fitness (ln)” value (37 °C) is -0.157 ± 0.075.
The corresponding values for AACUAGCAAUAUUACGCAGA are -3.43 ± 0.37 and -0.413 ± 0.15.
As for AACUAGCAAUAUUACGCCGA, the “self-splicing fitness (ln)” value is -1.74 ± 0.18 (30 °C) and -0.583 ± 0.18 (37 °C).
Consider AACUAGCAAUAUUACGCGAU, for which the “self-splicing fitness (ln)” value reads like this: (30 °C) -2.64 ± 0.15; (37 °C) -2.22 ± 0.17.
As for AACUAGCAAUAUUACGCGGG, the “self-splicing fitness (ln)” value reads like this: (30 °C) -2.78 ± 0.15; (37 °C) -2.37 ± 0.19.
Take AACUAGCAAUAUUACGCUUA: the “self-splicing fitness (ln)” value is -0.632 ± 0.087 (30 °C) and -0.749 ± 0.11 (37 °C).
Take AACUAGCAAUAUUACGGACA: the “self-splicing fitness (ln)” value by setting is: (30 °C) -0.804 ± 0.15; (37 °C) -0.48 ± 0.13.
Turning to AACUAGCAAUAUUACGGAUA, the “self-splicing fitness (ln)” value (30 °C) was -2.79 ± 0.25 and the “self-splicing fitness (ln)” value (37 °C) was -1.2 ± 0.23.
In the case of AACUAGCAAUAUUACGGCAA, the “self-splicing fitness (ln)” value (30 °C) was -1.01 ± 0.076 and the “self-splicing fitness (ln)” value (37 °C) was -0.905 ± 0.09.
For AACUAGCAAUAUUACGGUAG, in that order: -2.06 ± 0.11 and 0.0456 ± 0.12.
Turning to AACUAGCAAUAUUACGGUGU, the “self-splicing fitness (ln)” value (30 °C) is -1.77 ± 0.083 and the “self-splicing fitness (ln)” value (37 °C) was -0.956 ± 0.099.
Turning to AACUAGCAAUAUUACGUAAG, the “self-splicing fitness (ln)” value reads like this: (30 °C) -1.22 ± 0.084; (37 °C) -1.65 ± 0.11.
For the sequence AACUAGCAAUAUUACGUCAG, the “self-splicing fitness (ln)” value (30 °C) is -3.51 ± 0.18 and the “self-splicing fitness (ln)” value (37 °C) was -1.57 ± 0.15.
Take AACUAGCAAUAUUACGUCCC: the “self-splicing fitness (ln)” value is, setting by setting: (30 °C) -0.0622 ± 0.15; (37 °C) 0.182 ± 0.16.
Consider AACUAGCAAUAUUACGUCCG, for which the “self-splicing fitness (ln)” value (30 °C) is -1.74 ± 0.11 and the “self-splicing fitness (ln)” value (37 °C) was -0.228 ± 0.13.
With AAGAAGCAAUAUUACGAACA, the “self-splicing fitness (ln)” value is, setting by setting: (30 °C) -1.06 ± 0.16; (37 °C) -0.0339 ± 0.16.
The corresponding values for AAGAAGCAAUAUUACGACAA are -0.745 ± 0.098 and -0.224 ± 0.12.
Turning to AAGAAGCAAUAUUACGAGAA, the “self-splicing fitness (ln)” value reads like this: (30 °C) -2.07 ± 0.26; (37 °C) -1.87 ± 0.19.
As for AAGAAGCAAUAUUACGAUAA, the “self-splicing fitness (ln)” value was -1.11 ± 0.12 (30 °C) and -1.07 ± 0.15 (37 °C).
Take AAGAAGCAAUAUUACGAUGC: the “self-splicing fitness (ln)” value (30 °C) is -2.61 ± 0.13 and the “self-splicing fitness (ln)” value (37 °C) was -1.76 ± 0.17.
The corresponding values for AAGAAGCAAUAUUACGCGGC are -3.5 ± 0.49 and -2.17 ± 0.44.
Regarding AAGAAGCAAUAUUACGCGUG, the “self-splicing fitness (ln)” value (30 °C) is -0.716 ± 0.073 and the “self-splicing fitness (ln)” value (37 °C) was -0.537 ± 0.093.
As for AAGAAGCAAUAUUACGGAUA, the “self-splicing fitness (ln)” value was -1.67 ± 0.1 (30 °C) and -1.38 ± 0.12 (37 °C).
On to AAGAAGCAAUAUUACGGCCG, for which the “self-splicing fitness (ln)” value was -1.47 ± 0.12 (30 °C) and -0.0374 ± 0.15 (37 °C).
On to AAGAAGCAAUAUUACGUAAU, for which the “self-splicing fitness (ln)” value was -1.89 ± 0.097 (30 °C) and -1.2 ± 0.12 (37 °C).
The corresponding values for AAGAAGCAAUAUUACGUCUA are -0.234 ± 0.066 and -0.565 ± 0.098.
Consider AAGAAGCAAUAUUACGUGAU, for which the “self-splicing fitness (ln)” value is -1.96 ± 0.11 (30 °C) and -2.09 ± 0.11 (37 °C).
The corresponding values for AAGAAGCAAUAUUACGUUCA are -0.746 ± 0.077 and 0.133 ± 0.099.
For the sequence AAGAAGCAAUAUUACGUUUA, the “self-splicing fitness (ln)” value was -1.62 ± 0.074 (30 °C) and -1.01 ± 0.077 (37 °C).
AAGCAGCAAUAUUACGAAAC: the “self-splicing fitness (ln)” value was -3.7 ± 0.4 (30 °C) and -1.8 ± 0.38 (37 °C).
Regarding AAGCAGCAAUAUUACGACAC, the “self-splicing fitness (ln)” value runs as follows: (30 °C) -1.25 ± 0.058; (37 °C) -0.831 ± 0.073.
The corresponding values for AAGCAGCAAUAUUACGACUU are -0.223 ± 0.074 and -0.323 ± 0.086.
Turning to AAGCAGCAAUAUUACGAGGA, the “self-splicing fitness (ln)” value (30 °C) is -2.82 ± 0.22 and the “self-splicing fitness (ln)” value (37 °C) is -2.16 ± 0.18.
Take AAGCAGCAAUAUUACGCAAA: the “self-splicing fitness (ln)” value by setting is: (30 °C) -1.82 ± 0.14; (37 °C) -1.65 ± 0.13.
For AAGCAGCAAUAUUACGCAAG, in that order: -2.43 ± 0.19 and -0.222 ± 0.098.
AAGCAGCAAUAUUACGCUGC: the “self-splicing fitness (ln)” value is -3.47 ± 0.13 (30 °C) and -3.05 ± 0.18 (37 °C).
Consider AAGCAGCAAUAUUACGCUUC, for which the “self-splicing fitness (ln)” value is -2.97 ± 0.18 (30 °C) and -2.81 ± 0.26 (37 °C).
The corresponding values for AAGCAGCAAUAUUACGGGAG are -3.74 ± 0.16 and -3.05 ± 0.23.
Regarding AAGCAGCAAUAUUACGGUCC, the “self-splicing fitness (ln)” value is, setting by setting: (30 °C) -1.17 ± 0.1; (37 °C) -0.771 ± 0.17.
With AAGCAGCAAUAUUACGGUGC, the “self-splicing fitness (ln)” value is -3.29 ± 0.15 (30 °C) and -1.61 ± 0.14 (37 °C).
As for AAGCAGCAAUAUUACGGUUG, the “self-splicing fitness (ln)” value was -3.08 ± 0.14 (30 °C) and -2.01 ± 0.15 (37 °C).
On to AAGCAGCAAUAUUACGUGCC, for which the “self-splicing fitness (ln)” value is -1.23 ± 0.11 (30 °C) and -1.47 ± 0.12 (37 °C).
Regarding AAGCAGCAAUAUUACGUGGC, the “self-splicing fitness (ln)” value by setting is: (30 °C) -4.15 ± 0.39; (37 °C) -1.92 ± 0.2.
Regarding AAGGAGCAAUAUUACGACCA, the “self-splicing fitness (ln)” value (37 °C) is -1.82 ± 0.31.
With AAGGAGCAAUAUUACGACGU, the “self-splicing fitness (ln)” value (30 °C) was -1.88 ± 0.13 and the “self-splicing fitness (ln)” value (37 °C) is -0.122 ± 0.14.
AAGGAGCAAUAUUACGAUUC: the “self-splicing fitness (ln)” value is, setting by setting: (30 °C) -1.13 ± 0.19; (37 °C) -1.78 ± 0.48.
In the case of AAGGAGCAAUAUUACGAUUG, the “self-splicing fitness (ln)” value is -3.8 ± 0.32 (30 °C) and -0.948 ± 0.15 (37 °C).
On to AAGGAGCAAUAUUACGCCCU, for which the “self-splicing fitness (ln)” value is -1.87 ± 0.35 (30 °C) and -1.91 ± 0.43 (37 °C).
AAGGAGCAAUAUUACGCGGA: the “self-splicing fitness (ln)” value (30 °C) was -2.07 ± 0.13 and the “self-splicing fitness (ln)” value (37 °C) was -2.71 ± 0.2.
The corresponding values for AAGGAGCAAUAUUACGGAGA are -3.62 ± 0.31 and -2.35 ± 0.27.
For AAGGAGCAAUAUUACGGCUG, the “self-splicing fitness (ln)” value (30 °C) is -2.21 ± 0.23 and the “self-splicing fitness (ln)” value (37 °C) is -1.37 ± 0.27.
Take AAGGAGCAAUAUUACGGGAU: the “self-splicing fitness (ln)” value is -4.25 ± 0.29 (30 °C) and -3.56 ± 0.36 (37 °C).
AAGGAGCAAUAUUACGGUUU: the “self-splicing fitness (ln)” value was -2.45 ± 0.12 (30 °C) and -1.07 ± 0.11 (37 °C).
The corresponding values for AAGGAGCAAUAUUACGUAUG are -3.31 ± 0.34 and -3.58 ± 0.33.
As to AAGGAGCAAUAUUACGUCAA, the “self-splicing fitness (ln)” value is, setting by setting: (30 °C) -1.97 ± 0.22; (37 °C) -2.96 ± 0.4.
Regarding AAGGAGCAAUAUUACGUCUC, the “self-splicing fitness (ln)” value (30 °C) was -2.84 ± 0.48.
AAGGAGCAAUAUUACGUGAU: the “self-splicing fitness (ln)” value was -2.78 ± 0.18 (30 °C) and -2.45 ± 0.3 (37 °C).
The corresponding values for AAGGAGCAAUAUUACGUGUG are -3.39 ± 0.17 and -0.957 ± 0.15.
AAGGAGCAAUAUUACGUUCA: the “self-splicing fitness (ln)” value (30 °C) was -1.44 ± 0.077 and the “self-splicing fitness (ln)” value (37 °C) is -0.0364 ± 0.088.
For AAGGAGCAAUAUUACGUUUG, in that order: -3.57 ± 0.42 and -2.82 ± 0.23.
The corresponding values for AAGUAGCAAUAUUACGAAUG are -3.14 ± 0.24 and -1.72 ± 0.14.
Consider AAGUAGCAAUAUUACGACUG, for which the “self-splicing fitness (ln)” value by setting is: (30 °C) 0.323 ± 0.082; (37 °C) -0.593 ± 0.11.
As for AAGUAGCAAUAUUACGAGCU, the “self-splicing fitness (ln)” value is, setting by setting: (30 °C) -0.679 ± 0.057; (37 °C) -0.289 ± 0.087.
The corresponding values for AAGUAGCAAUAUUACGAUAU are -1.21 ± 0.066 and -0.506 ± 0.084.
As for AAGUAGCAAUAUUACGCAUG, the “self-splicing fitness (ln)” value was -2.05 ± 0.069 (30 °C) and -0.492 ± 0.074 (37 °C).
Turning to AAGUAGCAAUAUUACGCCUU, the “self-splicing fitness (ln)” value (30 °C) is -1.39 ± 0.12 and the “self-splicing fitness (ln)” value (37 °C) is -1.01 ± 0.19.
With AAGUAGCAAUAUUACGCGGG, the “self-splicing fitness (ln)” value is -2.89 ± 0.19 (30 °C) and -2.84 ± 0.2 (37 °C).
For AAGUAGCAAUAUUACGCUAA, in that order: -1.81 ± 0.14 and -0.343 ± 0.15.
Turning to AAGUAGCAAUAUUACGCUCG, the “self-splicing fitness (ln)” value reads like this: (30 °C) -0.592 ± 0.13; (37 °C) -0.234 ± 0.17.
On to AAGUAGCAAUAUUACGCUUU, for which the “self-splicing fitness (ln)” value was -3.18 ± 0.24 (30 °C) and -3.19 ± 0.47 (37 °C).
As for AAGUAGCAAUAUUACGGACG, the “self-splicing fitness (ln)” value is -2.73 ± 0.18 (30 °C) and -1.74 ± 0.2 (37 °C).
In the case of AAGUAGCAAUAUUACGGAGG, the “self-splicing fitness (ln)” value (30 °C) is -3.89 ± 0.33 and the “self-splicing fitness (ln)” value (37 °C) was -2.5 ± 0.33.
For the sequence AAGUAGCAAUAUUACGGCAG, the “self-splicing fitness (ln)” value (30 °C) is -2.54 ± 0.18 and the “self-splicing fitness (ln)” value (37 °C) is -1.77 ± 0.18.
On to AAGUAGCAAUAUUACGGCUG, for which the “self-splicing fitness (ln)” value reads like this: (30 °C) -0.444 ± 0.083; (37 °C) -0.731 ± 0.13.
